These results are taken from patent US20190194323A1 (ALLAKOS, published 2019).

In experiment [1] the target is Siglec-7 on primary human cells (NK cells, CD8+ tumor-infiltrating T cells) (human) (UniProt Q9Y286).
The target of experiment [2] is T1, Siglec-7-ECD (human, UniProt Q9Y286 19-353).
T1 construct: also called p75; AIRM
Briefly: bio-layer interferometry (ForteBio): antibody captured on the sensor, Siglec-7-ECD as analyte, 1:1 global fit. As for the experimental part: A panel of antibodies was evaluated for binding to Siglec-7. The results identified anti-Siglec-7 antibodies that have improved KD values compared to commercially available anti-Siglec-7 antibodies (FIG. 7).
Antibody binding analysis was carried out by bio-layer interferometry (ForteBio). […] Antibodies were captured on anti-mouse kinetic sensors at 0.5 ug/mL; Siglec-7-ECD was used as analyte and diluted in assay buffer from 50 nM to 1.56 nM with 2× dilutions. Two-minute associations were conducted, followed by 10-minute dissociations. Results were determined relative to a control empty reference AHC sensor, and analyzed using ForteBio analysis software with 1:1 global fit parameters.

The next experiment addresses T2, Siglec-7-ECD-Fc (human, UniProt Q9Y286 19-353).
T2 construct: also called recombinant Siglec-7-Fc fusion protein; Siglec-7-Fc; not shown: human Fc (huFc)
Briefly: ligand blocking on cells, flow cytometry: antibody dilutions pre-mixed with 10 nM Siglec-7-ECD-Fc, then binding of Siglec-7-ECD-Fc to Siglec-7 ligands on A375 melanoma cells. As for the experimental part:
Recombinant Siglec-7-Fc was added to A375 cells in the presence of anti-Siglec-7 antibodies at increasing concentrations and binding of the complex was detected on the cell surface.
Human melanoma cell line A375, which expresses high level of ligands for Siglec-7, was used to determine the blocking activity of anti-Siglec-7 antibodies in a cell based assay. Two-fold serial dilutions of anti-Siglec-7 antibodies (40 nM to 40 pM) were combined with 10 nM Siglec-7-ECD-Fc in FACS buffer (PBS/2% BSA) and incubated on ice for 30 minutes. 2.5×10e4 A375 cells per well were added to round bottom 96-well tissue culture plates in FACS buffer, plates were centrifuged at 400 g for 2 min, supernatant was removed and cells were re-suspended in 100 ul of the antibody-Siglec-7 complexes. After a 1 hour incubation on ice, cells were washed twice and incubated for 30 minutes with goat anti-human F(ab′)₂ fragment conjugated to AF647 (Jackson IR labs) at 1 ug/ml in FACS buffer. After two more washes, cells were fixed in PBS/2% PFA and acquired on a Novocyte flow cytometer (ACEA biosciences). IC₅₀ values for blocking were determined based on plotting mean fluorescence in the APC channel and analysis using Prism Graphpad software.
A general note: In flow cytometry, cells or beads pass a laser one at a time.

In experiment [3] the target is Siglec-7 on primary human cells (NK cells, CD8+ tumor-infiltrating T cells) (human) (UniProt Q9Y286). The source holds these as a separate data set.
The target of experiment [4] is T1, Siglec-7-ECD. Description: value quoted in the legend box of the internalization graph; same value as in the Figure 7 table (bio-layer interferometry). A general note: In BLI a coated tip is dipped into the sample, and binding shifts an interference pattern.
Experiment [5] has as its target T3, Siglec-7 on primary human cells (NK cells, CD8+ tumor-infiltrating T cells) (human, UniProt Q9Y286 19-467). Briefly: cell-based or functional assay.
The target of experiment [6] is T1, Siglec-7-ECD. Description: monovalent Fab; bio-layer interferometry (ForteBio) per Methods.
Experiment [7] concerns the target T1, Siglec-7-ECD. Briefly: monovalent Fab; bio-layer interferometry (ForteBio) per Methods; No. 12 of Table 1 (second entry of the pair; No. 2 gives 250-500).
For experiment [8], the target named is T1, Siglec-7-ECD. Briefly: monovalent Fab; bio-layer interferometry (ForteBio) per Methods; No. 13 of Table 1 (second entry of the pair; No. 6 also gives >500).
The target of experiment [9] is T1, Siglec-7-ECD. Description: monovalent Fab; bio-layer interferometry (ForteBio) per Methods; lower end of the range 250-500; No. 20 of Table 1.
Experiment [10] has as its target T1, Siglec-7-ECD. Description: monovalent Fab; bio-layer interferometry (ForteBio) per Methods; upper end of the range 250-500; No. 20 of Table 1.
The target of experiment [11] is T3, Siglec-7 on primary human cells (NK …). Briefly: cell-based or functional assay. The source holds these as a separate data set.

T1 sequence (Q9Y286 19-353 limits assumed): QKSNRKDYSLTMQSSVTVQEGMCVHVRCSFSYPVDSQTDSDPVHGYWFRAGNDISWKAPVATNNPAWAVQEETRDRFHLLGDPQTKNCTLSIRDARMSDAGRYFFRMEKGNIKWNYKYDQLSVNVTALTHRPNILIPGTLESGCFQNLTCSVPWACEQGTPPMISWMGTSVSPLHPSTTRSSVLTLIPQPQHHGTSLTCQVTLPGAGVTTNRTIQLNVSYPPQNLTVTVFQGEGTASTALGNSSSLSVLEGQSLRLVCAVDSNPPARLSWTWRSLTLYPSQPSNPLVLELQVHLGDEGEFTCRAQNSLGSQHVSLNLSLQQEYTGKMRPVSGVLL
T2 sequence (Q9Y286 19-353): as the sequence (Q9Y286 19-353 limits assumed) above
T3 sequence (Q9Y286 19-467 limits assumed): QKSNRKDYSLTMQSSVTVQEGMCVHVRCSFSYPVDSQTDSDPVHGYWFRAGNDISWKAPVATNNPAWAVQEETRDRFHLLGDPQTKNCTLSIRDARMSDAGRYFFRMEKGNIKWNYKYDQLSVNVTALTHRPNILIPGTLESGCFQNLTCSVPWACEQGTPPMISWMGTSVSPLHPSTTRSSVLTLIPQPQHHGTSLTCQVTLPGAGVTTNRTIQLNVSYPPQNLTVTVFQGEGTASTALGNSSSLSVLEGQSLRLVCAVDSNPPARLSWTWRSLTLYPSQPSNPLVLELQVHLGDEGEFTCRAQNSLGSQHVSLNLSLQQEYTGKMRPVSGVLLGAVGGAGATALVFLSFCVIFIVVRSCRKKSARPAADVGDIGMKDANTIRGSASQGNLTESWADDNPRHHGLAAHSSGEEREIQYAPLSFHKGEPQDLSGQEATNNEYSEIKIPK
Sequence of Siglec-7 on primary human cells (NK cells, CD8+ tumor-infiltrating T cells) (human) (Q9Y286 19-467 limits assumed): as above

As a reminder, the Kd is a measure of binding affinity in units of concentration. Broadly, the IC50 is the concentration at which inhibition is half-maximal. Higher therefore signals a need for much substance. Turning to QA79 (antibody), the IC50 of Siglec-7 internalization on NK cells (24 h, PBMC; remaining surface Siglec-7 stained with 4B12-AF647) in [1] was determined as 0.326 nM. In the experiment with Siglec-7-ECD [2], this molecule came in with a dissociation constant (Kd) of 0.706 nM. This molecule also registered an IC50 in the experiment with Siglec-7-ECD-Fc of 7.49 nM.
“anti-Siglec-7 antibody clone S7.7 (BioLegend)” gave an IC50 of Siglec-7 internalization on NK cells (24 h, PBMC; remaining surface Siglec-7 stained with 4B12-AF647) in experiment [1] of 0.469 nM. In addition, in [3], the IC50 (read off the curve) was 0.07 µg/mL. For the same molecule, the Kd with Siglec-7-ECD [2] and in the experiment with Siglec-7-ECD [4] was 0.422 nM each time. The molecule further registered an IC50 with Siglec-7-ECD-Fc of 4.26 nM.

B1: 2G12 (antibody, V domains shown)
VH: QVQLQQPGAELVKPGASVKLSCKASGYTFTSYWMQWVKQRPGQGLEWIGEIDPSVSYTEYNQKFKGKATLTVDTSSSTAYMQLSSLTSEDSAVYFCARWSKDYYGMDYWGQGTSVTVSS
VL: DIVLTQSHKFMSTSVGDRVTITCKASQDVSTAVAWYQQKPGQSPKLLIYWTSTRHTGVPDRFTGSGSGTDHTLTISSVQAEDLALYYCHQQYSTPPTFGGGTKLEIK
For B1, in [5], the “IC50 of Siglec-7 internalization on NK cells (24 h, PBMC; remaining surface Siglec-7 stained with 4B12-AF647)” value amounted to 0.0673 nM. The Kd with Siglec-7-ECD [2] turned out to be 0.205 nM. In the experiment with Siglec-7-ECD-Fc, this molecule showed an IC50 of 19.8 nM.

B2: humanized 16H11-derived Fab, VH AK417-17 / VL AK418-2 (Fab, V domains shown)
VH: QVQLVQSGAEVKKPGSSVKVSCKASGYDFSNFWMNWVRQAPGQGLEWMGGIYPGDGEINYAQKFQGRVTITADESTSTAYMELSSLRSEDTAVYYCARDDYLRAMDIWGQGTMVTVSS
VL: DIQMTQSPSSLSASVGDRVTITCRASGNIHNYLAWYQQKPGKAPKFLLYSAKRLESGVPSRFSGSGSGTDYTLTISSLQPEDFATYYCQHFWSSPYTFGGGTKVEIK
notes: Measured as monovalent Fab; also called No. 2; No. 12
For the molecule B2, the Kd with Siglec-7-ECD [6] was 0.25 to 0.5 nM; with Siglec-7-ECD [7] it was above 0.5 nM.

B3: humanized 16H11-derived Fab, VH AK417-17 / VL AK419-2 (Fab, V domains shown)
VH: QVQLVQSGAEVKKPGSSVKVSCKASGYDFSNFWMNWVRQAPGQGLEWMGGIYPGDGEINYAQKFQGRVTITADESTSTAYMELSSLRSEDTAVYYCARDDYLRAMDIWGQGTMVTVSS
VL: DIQMTQSPSSLSASVGDRVTITCRASQNIHNYLAWYQQKPGKAPKFLLYSAKRLESGVPSRFSGSGSGTDYTLTISSLQPEDFATYYCQHFWSSPYTFGGGTKVEIK
notes: Measured as monovalent Fab; also called No. 6; No. 13
B3: the Kd with Siglec-7-ECD [6] and in the experiment with Siglec-7-ECD [8] was above 0.5 nM each time.

B4: humanized 16H11-derived Fab, VH AK417-17 / VL AK435-7 (Fab, V domains shown)
VH: QVQLVQSGAEVKKPGSSVKVSCKASGYDFSNFWMNWVRQAPGQGLEWMGGIYPGDGEINYAQKFQGRVTITADESTSTAYMELSSLRSEDTAVYYCARDDYLRAMDIWGQGTMVTVSS
VL: DIQMTQSPSSLSASVGDRVTITCRASQNIHNYLAWYQQKPGKAPKFLLYSAKRLEDGVPSRFSGSGSGTDYTLTISSLQPEDFATYYCQHFWSSPYTFGGGTKVEIK
notes: Measured as monovalent Fab; also called No. 14; No. 20
With B4, the Kd in the experiment with Siglec-7-ECD [6] is above 0.5 nM; with Siglec-7-ECD [9], at least 0.25 nM; in the experiment with Siglec-7-ECD [10], at most 0.5 nM.

B5: monoclonal antibody 16H11 (antibody, V domains shown)
VH: QVQLHQSGAELVKPGASVKISCKGSGYDFSNFWMNWVKQRPGKGLEWIGQIYPGDGEIKYNGKFKGKATLTADESSSTAYIHLSSLTSEDSAVYFCARDDYLRAMDYWGQGTSVTVSS
VL: DIQMTQSPASLSASVGETVTITCRASGNIHNYLAWFQQKQGKSPHFLVYSAKALADGVPSRFSGSGSGTQYSLKINSLQPEDFGTYYCQHFWSSPYTFGGGTKLEIK
notes: Parental antibody; The Methods capture antibodies on anti-mouse sensors
With B5, the “IC50 of Siglec-7 internalization on NK cells (24 h, PBMC; remaining surface Siglec-7 stained with 4B12-AF647)” value in experiment [5] was 0.0106 nM. Further, binding with Siglec-7-ECD [2] was put at a Kd of 0.035 nM. In addition, the IC50 with Siglec-7-ECD-Fc amounted to 7.42 nM.

B6: 10E11 (antibody, V domains shown)
VH: EVQLQQSGPELVKPGDSVKISCKASGYSSTGYFMNWVMQSHGKSLEWIGRIIPYNGDTFYNQKFKDKATLTVDKSSNTAHLELRSLTSEDSVVYYCAGPRIGGDYDGGSWLAYWGQGTLVTVSA
VL: DIVMTQSQKFMSTTVGDRVSITCKASQNVGTAVAWYQQKPGHSPKLLIYSASNRYTGVPDRFTGSGYGTDFTLTISNMQSEDLADYFCQQYNSYPLTFGAGTKLELK
Consider B6, for which, in experiment [5], the “IC50 of Siglec-7 internalization on NK cells (24 h, PBMC; remaining surface Siglec-7 stained with 4B12-AF647)” value came out at 0.0493 nM. The same molecule registered a dissociation constant (Kd) with Siglec-7-ECD [2] of 0.522 nM. The molecule further yielded an IC50 with Siglec-7-ECD-Fc of 6.23 nM.

B7: 5D1 (antibody)
heavy chain variable region: QVQLQQPGAELVKPGASVKMSCKASGYTFTSSWITWVKDRPGQGLEWIGDIYPGNGNTNYNEKFKSKATLTVDTSSNTVYMQLSSLTSEDSAVHYCARDGRGYFDYWGPGTTLTVSS
light chain variable region: DIQMTQTTSSLSASLGDRVTIICRASQDISNFLNWYQQKPDGTVKLLMYDTSILQSGVPSRFSGRGSGADYSLTINNLEQEDLATYFCQQGKTLPYTFGGGTKLEIK
As for B7, the “IC50 of Siglec-7 internalization on NK cells (24 h, PBMC; remaining surface Siglec-7 stained with 4B12-AF647)” value in experiment [5] came to 0.0206 nM. The molecule also came in with a Kd in the experiment with Siglec-7-ECD [2] of 0.001 nM.

B8: monoclonal antibody 3F1 (antibody, V domains shown)
VH: EFQLQQSGPEMVKPGASVKMSCKASGDSFTDYKINWVKQNNGKSLEWIGVINPDSGTTSYNQIFEGKATLTVDQSSSTAYMQVNRLTSEDSAVYYCTTWDDYSFYAMDYWGQGTSVTVSS
VL: DVLMTQTPLSLPVSLGDQASISCRSSQNIVHSNGNTYLEWFLQKPGQSPKLLIYKVSNRFSGVPDRFSGSGSGTDFTLKISRVEAEDLGVYYCFQGSHIPWTFGGGTKLEIK
In the case of B8, in [5], the “IC50 of Siglec-7 internalization on NK cells (24 h, PBMC; remaining surface Siglec-7 stained with 4B12-AF647)” value amounted to 0.013 nM. In experiment [11], the “IC50 (read off the curve)” value was around 0.001 µg/mL. Moreover, the Kd in the experiment with Siglec-7-ECD [2] and with Siglec-7-ECD [4] was 0.041 nM each time. The molecule further yielded an IC50 with Siglec-7-ECD-Fc of 8.5 nM.

B9: 5G10 (antibody, V domains shown)
VH: EVKLEESGGGLVQPGGSMKVSCVASGFTFSNYWMNWVRQSPEKGLEWVAQIRLKSDNYATHYAESVKGRFTISRDDSKSSVYLQMNNLRAEDTGIYYCTEGDYDIFAYWGQGTLVTVSA
VL: DIQMTQTTSSLSASLGDRVTISCSASQGITNYLNWYQQKPDGTVKLLIYYTSILHSGVPSRFSGSGSGTDYSLTISNLEPEDIATYYCQQYSKPPYTFGGGTKLEIK
Turning to B9, the “IC50 of Siglec-7 internalization on NK cells (24 h, PBMC; remaining surface Siglec-7 stained with 4B12-AF647)” value in experiment [5] worked out at 0.206 nM. In addition, in the experiment with Siglec-7-ECD [2], the affinity, expressed as Kd, was 0.001 nM. For the same molecule, the IC50 with Siglec-7-ECD-Fc amounted to 3.07 nM.

B10: 9D4 (antibody)
heavy chain variable region: QVTLKESGPGILQPSQTLSLTCSFSGFSLSTFGMGVGWIRQPSGKGLEWLAHIWWDDDKYYHPALKSRLTISKDTSNNQVFLKIANVDTAETATFYCARVERGYPLDHWGQGTTLRVSS
light chain variable region: DIVLTQSPASLAVSLGQRATISCRASQSVSSSSYSYMHWYQQKPGQPPKLLIKYASNLKSGVPARFSGSGSGTDFTLTIHPVEEEDTATYYCQHSWEIPPTFGGGTKLEIK
Consider B10, for which the “IC50 of Siglec-7 internalization on NK cells (24 h, PBMC; remaining surface Siglec-7 stained with 4B12-AF647)” value in [5] turned out to be 0.0875 nM. Further, the dissociation constant (Kd) with Siglec-7-ECD [2] was found to be 0.76 nM. The same molecule gave an IC50 in the experiment with Siglec-7-ECD-Fc of 1.41 nM.

B11: monoclonal antibody 8A2 (antibody, V domains shown)
VH: QVQLKESGPGLVAPSQSLSITCTVSGFSLTTYGVDWVRQFPGKGLEWLGVIWGGGNTNYNSALMSRLSISKDTSKSQVFLKMNSLQTDDTAMYYCAKHKGTSHAMEYWGQGTSVTVSS
VL: QIVLTQSPAIMSASPGEKVTMTCSASSRVIFMYWYQQKPGSSPRLLIYDTSNLASGVPVRFSGGGSGTSYSLTISRMEAEDAATYYCQQWSSYPPTFGAGTKLELK
Consider B11, for which the “IC50 of Siglec-7 internalization on NK cells (24 h, PBMC; remaining surface Siglec-7 stained with 4B12-AF647)” value in experiment [5] was determined as 0.0149 nM. This molecule also yielded a Kd with Siglec-7-ECD [2] of 0.001 nM.
